± gives the standard error. Variants at the floor of the assay were thinned out.
B1: glmS ribozyme (parent)
chain: AUAAAAGCGCCAGAACUACAGAAAUGUAGUUGACGAGGAGGAGGUUUAUCGAAUUUUCGGCGGAUGCCUCCAAA

Legend:
Details in all cases: with glucosamine-6-phosphate
glucosamine-6-phosphate [1] = variants of: B1; assay: self-cleavage kobs at 640 uM GlcN6P; higher = faster cleavage; RNA array
Summary of the method: (§1)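 kobs was derived by fitting per-tile medians to one- or two-exponential decays after normalising signals to baseline and to non-cleaving reference variants. Those signals came from barcoded ribozyme variants transcribed in situ by E. coli RNA polymerase on sequenced MiSeq chips, followed through a hybridised Cy3 probe at 37 °C and imaged over ~14 h. Glucosamine-6-phosphate (40 μM to 10 mM) in HEPES/KCl/Mg(OAc)2 buffer was flowed in. Weighted Michaelis–Menten fits across concentrations then gave kcat and KM.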

glucosamine-6-phosphate [2] = variants of: B1; assay: self-cleavage kobs at 2500 uM GlcN6P; higher = faster cleavage; RNA array
Summary of the method: as §1

glucosamine-6-phosphate [3] = variants of: B1; assay: self-cleavage kobs at 10000 uM GlcN6P; higher = faster cleavage; RNA array
Summary of the method: as §1

Variant	self-cleavage kobs at 640 uM GlcN6P (glucosamine-6-phosphate [1])	self-cleavage kobs at 2500 uM GlcN6P (glucosamine-6-phosphate [2])	self-cleavage kobs at 10000 uM GlcN6P (glucosamine-6-phosphate [3])
G13C U56A U65A	< 1e-05 s⁻¹	< 1e-05 s⁻¹	–
U30A C50A C67A C70G	4.38e-05 ± 1.7e-05 s⁻¹	–	–
A14G A36U G41A	< 1e-05 s⁻¹	< 1e-05 s⁻¹	< 1e-05 s⁻¹
C16A G41A G43U C61G C68U	< 1e-05 s⁻¹	< 1e-05 s⁻¹	–
G29C A33G C68G	6.58e-05 ± 3e-05 s⁻¹	–	–
A14G U49C	< 1e-05 s⁻¹	–	–
C16A G63U U69A	0.000106 ± 3.1e-05 s⁻¹	–	–
A15U U30A G32C U56C U57C C61G	< 1e-05 s⁻¹	< 1e-05 s⁻¹	–
G13U G51U U55A	< 1e-05 s⁻¹	–	–
G29A G38U C50G	0.00061 ± 0.00027 s⁻¹	–	–
A14C U56A C71U	0.000174 ± 4.2e-05 s⁻¹	0.000691 ± 0.00019 s⁻¹	–
C16A U31C G41C	< 1e-05 s⁻¹	< 1e-05 s⁻¹	–
A14G A42G C67A	0.01 ± 0.0028 s⁻¹	0.00856 ± 0.0041 s⁻¹	–
A14C U47C	0.000137 ± 2.2e-05 s⁻¹	–	0.00052 ± 0.00018 s⁻¹
A14U A36U U56G C67G	0.000671 ± 0.0003 s⁻¹	–	–
C16G G29A A39C	0.000119 ± 2.9e-05 s⁻¹	0.00027 ± 6.6e-05 s⁻¹	–
U30A G60U C71A	< 1e-05 s⁻¹	< 1e-05 s⁻¹	–

Variant	self-cleavage kobs at 640 uM GlcN6P (glucosamine-6-phosphate [1])	self-cleavage kobs at 2500 uM GlcN6P (glucosamine-6-phosphate [2])	self-cleavage kobs at 10000 uM GlcN6P (glucosamine-6-phosphate [3])
A15U U49G A64C	< 1e-05 s⁻¹	–	–
A14C C50U U54A	< 1e-05 s⁻¹	< 1e-05 s⁻¹	–
A15C C58U C61A C70U	6.5e-05 ± 2.2e-05 s⁻¹	–	–
A14U A39C A64G	0.000213 ± 5e-05 s⁻¹	0.000771 ± 0.0002 s⁻¹	–
U30C G35U C68U	< 1e-05 s⁻¹	< 1e-05 s⁻¹	–
U30A A39C U47C	4.7e-05 ± 1.3e-05 s⁻¹	–	–
G29U A36U U69G	0.00026 ± 0.00011 s⁻¹	0.000178 ± 7.3e-05 s⁻¹	–
A15C C16G A39C	3.83e-05 ± 1.7e-05 s⁻¹	0.000198 ± 3.4e-05 s⁻¹	–
C16A U30G G35A U69C	< 1e-05 s⁻¹	< 1e-05 s⁻¹	–
G13U C16U G37U U47G U57A C58U G60U	< 1e-05 s⁻¹	–	–
A14G U49A G63U	< 1e-05 s⁻¹	–	–
A15U C16A U47A C61G C68G	8.84e-05 ± 3.3e-05 s⁻¹	–	–
U30C G38A G44A	< 1e-05 s⁻¹	< 1e-05 s⁻¹	–
C16G G43U G66A	< 1e-05 s⁻¹	–	–
A15C U49G G62U A64C C70U	< 1e-05 s⁻¹	–	–
G29A G32A G66A	0.000119 ± 2.8e-05 s⁻¹	0.000338 ± 8.3e-05 s⁻¹	–
